Experimental data published in patent publication US20260109787A1 (NATIONAL UNIVERSITY CORPORATION YAMAGATA UNIVERSITY, published 2026).

Assays:
[1] = biological target: T1, VHH-SpyCatcher (fragment released from VHH-SpyCatcher-CD3 H chain by thrombin); test: SDS-PAGE of the purified thrombin-cleaved sample
T1 construct: Seen only as a band on SDS-PAGE, together with VHH-SpyTag

[2] = biological target: T2, VHH-SpyCatcher-CD3 H chain; test: SDS-PAGE before and after thrombin cleavage; the complex bands are lost after cleavage
T2 construct: Fusion protein expressed in Expi293F cells; also called second protein; VHH-SpyCatcher-CD3 H chain region
Method: Next, it was examined whether the band at the estimated molecular weight of the complex in Example 1(3) above was derived from the complex that included the VHH-SpyTag-CD3 L chain and the VHH-SpyCatcher-CD3 H chain. Specifically, the protein was purified in the same manner as in Example 1(2) above, and the elution fraction after the purification was added to a thrombin buffer (2.5 mmol/l CaCl₂), 150 mmol/l NaCl, 20 mmol/l Tris-HCl (pH8.0)). After the addition, the resulting mixture was dialyzed for 6 hours. Then, thrombin (cleaving ability: 2 unit/μl, manufactured by Wako Pure Chemical Industries, Ltd.) was added in accordance with the yield of the protein. After the addition, the mixture was left to stand at 25° C. overnight. After the standing, a sample after the cleavage reaction was purified using a protein A column. After the purification, a purified thrombin-cleaved sample was obtained. Then, SDS-PAGE was conducted. The SDS-PAGE was conducted in the same manner as in Example 1(3) above, except that the purified thrombin-cleaved sample was used as a sample for the SDS-PAGE in addition to the purified sample. […]

[3] = biological target: T3, VHH-SnoopCatcher (fragment released from VHH-SnoopCatcher-Herceptin H chain by thrombin); test: SDS-PAGE of the purified thrombin-cleaved sample
T3 construct: Seen only as a band on SDS-PAGE, together with VHH-SnoopTag

B1: VHH-SpyTag (fragment released from VHH-SpyTag-CD3 L chain by thrombin) (other, not shown: small tags and cut ends)
chain: QVQLVESGGALVQPGGSLRLSCAASGFPVNRYSMRWYRQAPGKEREWVAGMSSAGDRSSYEDSVKGRFTISRDDARNTVYLQMNSLKPEDTAVYYCNVNVGFEYWGQGTQVTVSSGGSGGAHIVMVDAYKPTKGGSGGGGSGG
notes: Seen only as a band on SDS-PAGE, together with VHH-SpyCatcher
binding result [1]: binds

B2: VHH-SpyTag-CD3 L chain (other)
chain: QVQLVESGGALVQPGGSLRLSCAASGFPVNRYSMRWYRQAPGKEREWVAGMSSAGDRSSYEDSVKGRFTISRDDARNTVYLQMNSLKPEDTAVYYCNVNVGFEYWGQGTQVTVSSGGSGGAHIVMVDAYKPTKGGSGGGGSGGLVPRGSHMHMDIVLTQSPAIMSASPGEKVTMTCSASSSVSYMNWYKQKSGTSPKRWTYDTSKLASGVPARFSGSGSGTSYSLTISSMEAEDAATYYCQQWSSNPPTFGSGTKLEIKRTVAAPSVFIFPPSDEQLKSGTASVVCLLNNFYPREAKVQWKVDNALQSGNSQESVTEQDSKDSTYSLSSTLTLSKADYEKHKVYACEVTHQGLSSPVTKSFNRGEC
notes: Fusion protein expressed in Expi293F cells; also called first protein; VHH-SpyTag-CD3 L chain region
binding result [2]: binds

B3: VHH-SnoopTag (fragment released from VHH-SnoopTag-Herceptin L chain by thrombin) (other, not shown: small tags and cut ends)
chain: QVQLVESGGALVQPGGSLRLSCAASGFPVNRYSMRWYRQAPGKEREWVAGMSSAGDRSSYEDSVKGRFTISRDDARNTVYLQMNSLKPEDTAVYYCNVNVGFEYWGQGTQVTVSSGGSGGKLGDIEFIKVNKGGSGGGGSGG
notes: Seen only as a band on SDS-PAGE, together with VHH-SnoopCatcher
binding result [3]: binds
